# Data from US20260242478A1 (published 2026).
# Tests used:
# [1] = molecular target: T1, Anti-CD28 Fab (SEQ ID NOs: 696, 697); experiment: phage ELISA; plate-bound anti-CD28 Fab pre-incubated with CD28 antigen as competitor, anti-M13 HRP detection
# T1 construct: In the phage ELISA the Fab was biotinylated and captured on neutravidin coated plates
# T1 sequence (VH, as listed by the source, chain 1 of 2): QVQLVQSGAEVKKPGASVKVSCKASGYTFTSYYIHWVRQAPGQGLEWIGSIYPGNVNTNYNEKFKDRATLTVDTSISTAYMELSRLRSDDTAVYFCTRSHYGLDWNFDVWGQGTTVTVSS
# T1 sequence (VL, as listed by the source, chain 2 of 2): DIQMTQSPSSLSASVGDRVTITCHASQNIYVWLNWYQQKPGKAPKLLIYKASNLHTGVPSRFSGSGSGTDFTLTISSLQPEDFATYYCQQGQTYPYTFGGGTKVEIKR
# Procedure: (§1) After panning, phage infected bacteria were plated out and colonies picked into 96 well blocks. Clonal phage was then amplified and separated from bacterial cells via centrifugation.
# (§2) Clonal phage were harvested as crude supematants and screened via standard ELISAs. […] Prior to the addition of clonal phage, wells were incubated with blocking buffer and CD28 antigen or blocking buffer alone. Without washing or aspirating, clonal phage supematants were then added to the wells and incubated for a short time. Wells were then washed followed by detection of bound phage using a horse radish conjugated anti-M13 antibody. Clonal phage of interest were then sent for sequence analysis.
# [2] = molecular target: T1, Anti-CD28 Fab (SEQ ID NOs: 696, 697); experiment: phage ELISA; biotinylated anti-CD28 Fab on neutravidin plate, clonal phage supernatant, anti-M13 HRP detection;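 note: crude supernatants of single phage clones picked after panning were screened for binding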
# Procedure: as §1, §2
# [3] = molecular target: T2, Anti-CD28 Fab (SEQ ID NOs: 696, 697); experiment: phage ELISA; biotinylated anti-CD28 Fab on neutravidin plate, clonal phage supernatant, anti-M13 HRP
# T2 construct: In the phage ELISA the Fab was biotinylated and captured on neutravidin coated plates
# T2 sequence (VH, as listed by the source, chain 1 of 2): as the sequence (VH, as listed by the source, chain 1 of 2) above
# T2 sequence (VL, as listed by the source, chain 2 of 2): as the sequence (VL, as listed by the source, chain 2 of 2) above
# Procedure: as §1, §2
# [4] = molecular target: T2, Anti-CD28 Fab (SEQ ID NOs: 696, 697); experiment: phage ELISA; captured anti-CD28 Fab pre-incubated with CD28 antigen as competitor, anti-M13 HRP;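 note: crude clonal phage supernatants added without washing after CD28 pre-incubation, bound phage detected with HRP anti-M13 antibody, reference wells got blocking buffer lacking CD28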
# [5] = molecular target: anti-CD28 Fab (SEQ ID NOs: 696, 697); experiment: phage binding ELISA; biotinylated Fab on neutravidin plate, clonal phage supernatant, anti-M13 HRP detection;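 note: phage from clones picked after panning, added to wells pre-incubated with blocking buffer with or without CD28 antigen, then briefly incubated and washed before detection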
# Sequence of anti-CD28 Fab (SEQ ID NOs: 696, 697) (VH, as listed by the source, chain 1 of 2): as the sequence (VH, as listed by the source, chain 1 of 2) above
# Sequence of anti-CD28 Fab (SEQ ID NOs: 696, 697) (VL, as listed by the source, chain 2 of 2): as the sequence (VL, as listed by the source, chain 2 of 2) above
# Procedure: as §1, §2
# [6] = molecular target: anti-CD28 Fab (SEQ ID NOs: 696, 697); experiment: phage binding ELISA; Fab on plate pre-incubated with CD28 antigen as competitor, anti-M13 HRP detection;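 note: crude clonal phage supernatants screened by ELISA, with comparison wells pre-incubated in blocking buffer only, lacking CD28 antigen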
# Procedure: as §1, §2
# [7] = molecular target: Anti-CD28 Fab (SEQ ID NOs: 696, 697); experiment: phage ELISA, biotinylated anti-CD28 Fab on neutravidin plate, anti-M13 HRP detection
# Target sequence in this assay (VH, as listed by the source, chain 1 of 2): as the sequence (VH, as listed by the source, chain 1 of 2) above
# Target sequence in this assay (VL, as listed by the source, chain 2 of 2): as the sequence (VL, as listed by the source, chain 2 of 2) above
# Procedure: as §1, §2
# [8] = molecular target: Anti-CD28 Fab (SEQ ID NOs: 696, 697); experiment: phage ELISA on captured anti-CD28 Fab, wells pre-incubated with CD28 antigen as competitor;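 note: crude clonal phage supernatants added without washing, bound phage read out by HRP-coupled anti-M13 antibody, reference wells given blocking buffer only instead of CD28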
# Target sequence in this assay (VH, as listed by the source, chain 1 of 2): as the sequence (VH, as listed by the source, chain 1 of 2) above
# Target sequence in this assay (VL, as listed by the source, chain 2 of 2): as the sequence (VL, as listed by the source, chain 2 of 2) above
# Procedure: as §1, §2
# [9] = molecular target: T3, Anti-CD28 Fab (SEQ ID NOs: 696, 697) (biotinylated (site not stated)); experiment: phage binding ELISA; Fab-coated wells pre-incubated with CD28 antigen as competitor, then clonal phage, anti-M13 HRP detection
# T3 sequence (VH, as listed by the source, chain 1 of 2): as the sequence (VH, as listed by the source, chain 1 of 2) above
# T3 sequence (VL, as listed by the source, chain 2 of 2): as the sequence (VL, as listed by the source, chain 2 of 2) above
# [10] = molecular target: T3, Anti-CD28 Fab (SEQ ID NOs: 696, 697); experiment: phage binding ELISA; biotinylated anti-CD28 Fab on neutravidin plates, clonal phage supernatant, anti-M13 HRP detection
# Procedure: as §1, §2
binder,measurement,setting,value
YCDGHKAEYMDKCL (Tested as clonal phage supernatant) [Phage-600],"Phage binding ELISA, Anti-CD28 Fab signal in the presence of CD28",[1],0.07
same,"Phage binding ELISA, Anti-CD28 Fab signal",[2],2.2
YCDGHLPEYLPKCL (Tested as clonal phage supernatant) [Phage-603],"Phage binding ELISA, Anti-CD28 Fab signal in the presence of CD28",[1],0.09
same,"Phage binding ELISA, Anti-CD28 Fab signal",[2],2.19
YCDGHMPEYIAKCL (Tested as clonal phage supernatant) [Phage-604],"Phage binding ELISA, Anti-CD28 Fab signal in the presence of CD28",[1],0.08
same,"Phage binding ELISA, Anti-CD28 Fab signal",[2],2.19
"YCDGHLPEYLSKCL (Clonal phage of the Peptide-87 library, tested as crude phage supernatant; not shown: pIII of the bacteriophage to which the peptide is fused) [Phage-605]",Anti-CD28 Fab signal (phage binding ELISA),[3],2.19
same,Anti-CD28 Fab signal in the presence of CD28 (phage binding ELISA),[4],0.07
"YCAGHLPEYFLKCL (Clonal phage of the Peptide-87 library, tested as crude phage supernatant; not shown: pIII of the bacteriophage to which the peptide is fused) [Phage-606]",Anti-CD28 Fab signal (phage binding ELISA),[3],2.19
same,Anti-CD28 Fab signal in the presence of CD28 (phage binding ELISA),[4],0.08
"YCDGHSPLYIWKCL (Clonal phage of the Peptide-87 library, tested as crude phage supernatant; not shown: pIII of the bacteriophage to which the peptide is fused) [Phage-607]",Anti-CD28 Fab signal (phage binding ELISA),[3],2.19
same,Anti-CD28 Fab signal in the presence of CD28 (phage binding ELISA),[4],0.09
"YCDGHLPEYMHKCL (Clonal phage of the Peptide-87 library, tested as crude phage supernatant; not shown: pIII of the bacteriophage to which the peptide is fused) [Phage-608]",Anti-CD28 Fab signal (phage binding ELISA),[3],2.19
same,Anti-CD28 Fab signal in the presence of CD28 (phage binding ELISA),[4],0.09
"YCDGHLPEYIEKCL (Clonal phage of the Peptide-87 library, tested as crude phage supernatant; not shown: pIII of the bacteriophage to which the peptide is fused) [Phage-609]",Anti-CD28 Fab signal (phage binding ELISA),[3],2.19
same,Anti-CD28 Fab signal in the presence of CD28 (phage binding ELISA),[4],0.07
"YCDGHLPQYKAKCL (Clonal phage of the Peptide-87 library, tested as crude phage supernatant; not shown: pIII of the bacteriophage to which the peptide is fused) [Phage-610]",Anti-CD28 Fab signal (phage binding ELISA),[3],2.19
same,Anti-CD28 Fab signal in the presence of CD28 (phage binding ELISA),[4],0.09
"YCDGHAVEYMAKCL (Clonal phage of the Peptide-87 library, tested as crude phage supernatant; not shown: pIII of the bacteriophage to which the peptide is fused) [Phage-611]",Anti-CD28 Fab signal (phage binding ELISA),[3],2.18
same,Anti-CD28 Fab signal in the presence of CD28 (phage binding ELISA),[4],0.1
"YCDGHSIEYRWKCL (Clonal phage of the Peptide-87 library, tested as crude phage supernatant; not shown: pIII of the bacteriophage to which the peptide is fused) [Phage-612]",Anti-CD28 Fab signal (phage binding ELISA),[3],2.18
same,Anti-CD28 Fab signal in the presence of CD28 (phage binding ELISA),[4],0.06
"YCEGHAEEYMQKCL (Clonal phage of the Peptide-87 library, tested as crude phage supernatant; not shown: pIII of the bacteriophage to which the peptide is fused) [Phage-613]",Anti-CD28 Fab signal (phage binding ELISA),[3],2.18
same,Anti-CD28 Fab signal in the presence of CD28 (phage binding ELISA),[4],0.06
"YCDGHAPEYIYKCL (Clonal phage of the Peptide-87 library, tested as crude phage supernatant; not shown: pIII of the bacteriophage to which the peptide is fused) [Phage-614]",Anti-CD28 Fab signal (phage binding ELISA),[3],2.18
same,Anti-CD28 Fab signal in the presence of CD28 (phage binding ELISA),[4],0.06
"YCDGHLEEYKQKCL (Clonal phage of the Peptide-87 library, tested as crude phage supernatant; not shown: pIII of the bacteriophage to which the peptide is fused) [Phage-615]",Anti-CD28 Fab signal (phage binding ELISA),[3],2.18
same,Anti-CD28 Fab signal in the presence of CD28 (phage binding ELISA),[4],0.08
"YCMGHLPQYMQKCL (Clonal phage of the Peptide-87 library, tested as crude phage supernatant; not shown: pIII of the bacteriophage to which the peptide is fused) [Phage-616]",Anti-CD28 Fab signal (phage binding ELISA),[3],2.18
same,Anti-CD28 Fab signal in the presence of CD28 (phage binding ELISA),[4],0.11
"YCDGHTQEYIAKCL (Clonal phage of the Peptide-87 library, tested as crude phage supernatant; not shown: pIII of the bacteriophage to which the peptide is fused) [Phage-617]",Anti-CD28 Fab signal (phage binding ELISA),[3],2.17
same,Anti-CD28 Fab signal in the presence of CD28 (phage binding ELISA),[4],0.06
YCDGHTQEYMAKCL (tested as crude phage supernatant) [Phage-618],"Anti-CD28 Fab (SEQ ID NOs: 696, 697) signal",[5],2.17
same,Anti-CD28 Fab signal in the presence of CD28,[6],0.07
YCEGHLPVYMWKCL (tested as crude phage supernatant) [Phage-619],"Anti-CD28 Fab (SEQ ID NOs: 696, 697) signal",[5],2.17
same,Anti-CD28 Fab signal in the presence of CD28,[6],0.09
YCDGHMPEYMWKCL (tested as crude phage supernatant) [Phage-620],"Anti-CD28 Fab (SEQ ID NOs: 696, 697) signal",[5],2.17
same,Anti-CD28 Fab signal in the presence of CD28,[6],0.09
YCAGHSPEYMTKCL (tested as crude phage supernatant) [Phage-621],"Anti-CD28 Fab (SEQ ID NOs: 696, 697) signal",[5],2.17
same,Anti-CD28 Fab signal in the presence of CD28,[6],0.09
YCAGHAPEYIQKCL (tested as crude phage supernatant) [Phage-622],"Anti-CD28 Fab (SEQ ID NOs: 696, 697) signal",[5],2.17
same,Anti-CD28 Fab signal in the presence of CD28,[6],0.09
YCAGHAPEYMQKCL (tested as crude phage supernatant) [Phage-624],"Anti-CD28 Fab (SEQ ID NOs: 696, 697) signal",[5],2.16
same,Anti-CD28 Fab signal in the presence of CD28,[6],0.07
YCDGHVAEYRDKCL (tested as crude phage supernatant) [Phage-623],"Anti-CD28 Fab (SEQ ID NOs: 696, 697) signal",[5],2.17
same,Anti-CD28 Fab signal in the presence of CD28,[6],0.07
YCDGHSNEYMAKCL (tested as crude phage supernatant) [Phage-625],"Anti-CD28 Fab (SEQ ID NOs: 696, 697) signal",[5],2.16
same,Anti-CD28 Fab signal in the presence of CD28,[6],0.07
YCDGHSLEYMAKCL (tested as crude phage supernatant) [Phage-630],"Anti-CD28 Fab (SEQ ID NOs: 696, 697) signal",[5],2.15
same,Anti-CD28 Fab signal in the presence of CD28,[6],0.06
YCEGHLPQYLQKCL (tested as crude phage supernatant) [Phage-626],"Anti-CD28 Fab (SEQ ID NOs: 696, 697) signal",[5],2.16
same,Anti-CD28 Fab signal in the presence of CD28,[6],0.09
YCDGHVAEYMAKCL (tested as crude phage supernatant) [Phage-627],"Anti-CD28 Fab (SEQ ID NOs: 696, 697) signal",[5],2.16
same,Anti-CD28 Fab signal in the presence of CD28,[6],0.07
YCDGHLPEYMWKCI (tested as crude phage supernatant) [Phage-628],"Anti-CD28 Fab (SEQ ID NOs: 696, 697) signal",[5],2.15
same,Anti-CD28 Fab signal in the presence of CD28,[6],0.07
YCDGHSAEYMWKCL (tested as crude phage supernatant) [Phage-629],"Anti-CD28 Fab (SEQ ID NOs: 696, 697) signal",[5],2.15
same,Anti-CD28 Fab signal in the presence of CD28,[6],0.08
YCEGHLPEYMSKCL (Clonal phage displaying the peptide; not shown: fused to pIII of the bacteriophage) [Phage-631],Anti-CD28 Fab signal (phage binding ELISA),[7],2.15
same,Anti-CD28 Fab signal in the presence of CD28 (phage binding ELISA),[8],0.07
YCAGHLPEYMQKCL (Clonal phage displaying the peptide; not shown: fused to pIII of the bacteriophage) [Phage-632],Anti-CD28 Fab signal (phage binding ELISA),[7],2.15
same,Anti-CD28 Fab signal in the presence of CD28 (phage binding ELISA),[8],0.09
YCDGHLGIYMWKCL (Clonal phage displaying the peptide; not shown: fused to pIII of the bacteriophage) [Phage-633],Anti-CD28 Fab signal (phage binding ELISA),[7],2.14
same,Anti-CD28 Fab signal in the presence of CD28 (phage binding ELISA),[8],0.08
YCEGHSAEYMAKCL (Clonal phage displaying the peptide; not shown: fused to pIII of the bacteriophage) [Phage-634],Anti-CD28 Fab signal (phage binding ELISA),[7],2.14
same,Anti-CD28 Fab signal in the presence of CD28 (phage binding ELISA),[8],0.06
YCDGHSDEYMAKCL (Clonal phage displaying the peptide; not shown: fused to pIII of the bacteriophage) [Phage-635],Anti-CD28 Fab signal (phage binding ELISA),[7],2.14
same,Anti-CD28 Fab signal in the presence of CD28 (phage binding ELISA),[8],0.07
YCEGHSLEYIGKCL (Clonal phage displaying the peptide; not shown: fused to pIII of the bacteriophage) [Phage-636],Anti-CD28 Fab signal (phage binding ELISA),[7],2.14
same,Anti-CD28 Fab signal in the presence of CD28 (phage binding ELISA),[8],0.06
YCDGHQPEYMAKCL (Clonal phage displaying the peptide; not shown: fused to pIII of the bacteriophage) [Phage-637],Anti-CD28 Fab signal (phage binding ELISA),[7],2.14
same,Anti-CD28 Fab signal in the presence of CD28 (phage binding ELISA),[8],0.07
YCAGHLPEYISKCL (Clonal phage displaying the peptide; not shown: fused to pIII of the bacteriophage) [Phage-638],Anti-CD28 Fab signal (phage binding ELISA),[7],2.14
same,Anti-CD28 Fab signal in the presence of CD28 (phage binding ELISA),[8],0.08
YCDGHIPIYMSKCL (Clonal phage displaying the peptide; not shown: fused to pIII of the bacteriophage) [Phage-639],Anti-CD28 Fab signal (phage binding ELISA),[7],2.13
same,Anti-CD28 Fab signal in the presence of CD28 (phage binding ELISA),[8],0.08
YCEGHLPQYLAKCL (Clonal phage displaying the peptide; not shown: fused to pIII of the bacteriophage) [Phage-640],Anti-CD28 Fab signal (phage binding ELISA),[7],2.12
same,Anti-CD28 Fab signal in the presence of CD28 (phage binding ELISA),[8],0.1
YCAGHLPLYMEKCL (Clonal phage displaying the peptide; not shown: fused to pIII of the bacteriophage) [Phage-641],Anti-CD28 Fab signal (phage binding ELISA),[7],2.12
same,Anti-CD28 Fab signal in the presence of CD28 (phage binding ELISA),[8],0.06
YCDGHSAEYMMKCL (Clonal phage displaying the peptide; not shown: fused to pIII of the bacteriophage) [Phage-642],Anti-CD28 Fab signal (phage binding ELISA),[7],2.12
same,Anti-CD28 Fab signal in the presence of CD28 (phage binding ELISA),[8],0.08
YCEGHLPQYIPKCL (Clonal phage displaying the peptide; not shown: fused to pIII of the bacteriophage) [Phage-643],Anti-CD28 Fab signal (phage binding ELISA),[7],2.12
same,Anti-CD28 Fab signal in the presence of CD28 (phage binding ELISA),[8],0.07
YCDGHAPQYMLKCL (tested as crude phage supernatant) [Phage-644],Anti-CD28 Fab signal in the presence of CD28 (phage binding ELISA),[9],0.09
same,Anti-CD28 Fab signal (phage binding ELISA),[10],2.12
